Measured values published in patent US20120207760A1.

Columns and labels:
Details in all cases: remark: other sources report otherwise
[1] = biological target: T1, recombinant homotrimeric HA, A/South Carolina/1/18 H1N1 (Influenza A virus A/South Carolina/1/18 (H1N1)); assay: trimeric HA microarray, transfection set 3
[2] = biological target: T2, recombinant homotrimeric HA, A/Egypt/3300-NAMRU3/08 H5N1 (Influenza A virus A/Egypt/3300-NAMRU3/08 (H5N1)); assay: trimeric HA microarray, transfection set 3
[3] = biological target: T3, recombinant homotrimeric HA, A/Indonesia/5/05 H5N1 (Influenza A virus A/Indonesia/5/05 (H5N1)); assay: trimeric HA microarray, transfection set 3
[4] = biological target: T4, recombinant homotrimeric HA, A/California/4/09 H1N1 (Influenza A virus A/California/4/09 (H1N1)); assay: trimeric HA microarray, transfection set 3
[5] = biological target: T5, recombinant homotrimeric HA, A/common magpie/Hong Kong/5052/07 H5N1 (Influenza A virus A/common magpie/Hong Kong/5052/07 (H5N1)); assay: trimeric HA microarray, transfection set 3
[6] = biological target: T6, recombinant homotrimeric HA, A/Japan/305/57 H2N2 (Influenza A virus A/Japan/305/57 (H2N2)); assay: trimeric HA microarray, transfection set 3
[7] = biological target: T7, recombinant homotrimeric HA, A/swine/Ontario/01911-2/99 H4N6 (Influenza A virus A/swine/Ontario/01911-2/99 (H4N6)); assay: trimeric HA microarray, transfection set 3
[8] = biological target: T8, recombinant homotrimeric HA, A/Solomon Islands/3/06 H1N1 (Influenza A virus A/Solomon Islands/3/06 (H1N1)); assay: trimeric HA microarray, transfection set 3
[9] = biological target: T9, recombinant homotrimeric HA, A/chicken/Vietnam/NCVD-016/08 H5N1 (Influenza A virus A/chicken/Vietnam/NCVD-016/08 (H5N1)); assay: trimeric HA microarray, transfection set 3
[10] = biological target: T10, recombinant homotrimeric HA, A/Vietnam/1203/04 H5N1 (Influenza A virus A/Vietnam/1203/04 (H5N1)); assay: trimeric HA microarray, transfection set 3
[11] = biological target: T11, recombinant homotrimeric HA, A/Hong Kong/2108/03 H9N2 (Influenza A virus A/Hong Kong/2108/03 (H9N2)); assay: trimeric HA microarray, transfection set 3
[12] = biological target: T1, recombinant homotrimeric HA, A/South …; assay: trimeric HA microarray, transfection set 5
[13] = biological target: T3, recombinant homotrimeric HA, …; assay: trimeric HA microarray, transfection set 5
[14] = biological target: T4, recombinant homotrimeric HA, …; assay: trimeric HA microarray, transfection set 5
[15] = biological target: T6, recombinant homotrimeric HA, …; assay: trimeric HA microarray, transfection set 5
[16] = biological target: T7, recombinant homotrimeric HA, …; assay: trimeric HA microarray, transfection set 5
[17] = biological target: T8, recombinant homotrimeric HA, A/Solomon …; assay: trimeric HA microarray, transfection set 5
[18] = biological target: T10, recombinant homotrimeric HA, …; assay: trimeric HA microarray, transfection set 5
[19] = biological target: T1, recombinant homotrimeric HA, A/South …; assay: trimeric HA microarray, transfection set 1
[20] = biological target: T2, recombinant homotrimeric HA, …; assay: trimeric HA microarray, transfection set 1
[21] = biological target: T3, recombinant homotrimeric HA, …; assay: trimeric HA microarray, transfection set 1
[22] = biological target: T4, recombinant homotrimeric HA, …; assay: trimeric HA microarray, transfection set 1
[23] = biological target: T5, recombinant homotrimeric HA, A/common …; assay: trimeric HA microarray, transfection set 1
[24] = biological target: T6, recombinant homotrimeric HA, …; assay: trimeric HA microarray, transfection set 1
[25] = biological target: T7, recombinant homotrimeric HA, …; assay: trimeric HA microarray, transfection set 1
[26] = biological target: T8, recombinant homotrimeric HA, A/Solomon …; assay: trimeric HA microarray, transfection set 1
[27] = biological target: T9, recombinant homotrimeric HA, …; assay: trimeric HA microarray, transfection set 1
[28] = biological target: T10, recombinant homotrimeric HA, …; assay: trimeric HA microarray, transfection set 1
[29] = biological target: T11, recombinant homotrimeric HA, A/Hong …; assay: trimeric HA microarray, transfection set 1

B1: TCN-523 (5248_A17) (antibody, V domains shown)
VH: QVQLVQSGAEVKKPGSSVKVSCKASGGSFSNYAFSWVRQAPGQGLEWMGGTIPLLGTTNYAQKFQGRVTISADQFTSTAYMELGSLRSEDTAVYYCTRRKMTTAFDSWGQGTLVTVSS
VL: QPVLTQPPSASASLGASVTLTCTLSSAYSNYKVDWYQQRPGKGPRFVMRVGTGGIVGSKGDGIPDRFSVLGSGLNRYLTIKNIQEEDESDYHCGADHGSGSNFVSPYVFGGGTKLTVL
[1]
  Trimeric HA Binding RLU: 23700 RLU
[2]
  Trimeric HA Binding RLU: 29100 RLU
[3]
  Trimeric HA Binding RLU: 22000 RLU
[4]
  Trimeric HA Binding RLU: 19400 RLU
[5]
  Trimeric HA Binding RLU: 640 RLU
[6]
  Trimeric HA Binding RLU: 4550 RLU
[7]
  Trimeric HA Binding RLU: 1640 RLU
[8]
  Trimeric HA Binding RLU: 11000 RLU
[9]
  Trimeric HA Binding RLU: 18900 RLU
[10]
  Trimeric HA Binding RLU: 22100 RLU
[11]
  Trimeric HA Binding RLU: 51 RLU
[12]
  Trimeric HA Binding RLU: 52000 RLU
[13]
  Trimeric HA Binding RLU: 55000 RLU
[14]
  Trimeric HA Binding RLU: 34400 RLU
[15]
  Trimeric HA Binding RLU: 22000 RLU
[16]
  Trimeric HA Binding RLU: 1700 RLU
[17]
  Trimeric HA Binding RLU: 37600 RLU
[18]
  Trimeric HA Binding RLU: 27800 RLU
[19]
  Trimeric HA Binding RLU: 26400 RLU
[20]
  Trimeric HA Binding RLU: 25500 RLU
[21]
  Trimeric HA Binding RLU: 18500 RLU
[22]
  Trimeric HA Binding RLU: 17700 RLU
[23]
  Trimeric HA Binding RLU: 6240 RLU
[24]
  Trimeric HA Binding RLU: 191 RLU
[25]
  Trimeric HA Binding RLU: 49 RLU
[26]
  Trimeric HA Binding RLU: 6780 RLU
[27]
  Trimeric HA Binding RLU: 10800 RLU
[28]
  Trimeric HA Binding RLU: 80 RLU
[29]
  Trimeric HA Binding RLU: 41 RLU

B2: TCN-504 (3251_K17) (antibody, V domains shown)
VH: QVQLQESGPGLVKPSETLSLTCAVSGVSISNIDFYWGWIRQPPGKGLEWIGNIYYTGITFYNPSLSSRVAISIDTSKNQFSLTLTSVTAADTAMYYCARHYGDSEAINDAFDIWGQGTMLTVSS
VL: EIVMTQSPATLSVSPGERATLSCRASQSVGNSLAWYQQRPGQAPRLLIYGASTRATGIPPRFSGSGSGTEFTLTISSLQTEDFAVYYCQQYINWRPLSFGGGTKVEIK
[1]
  Trimeric HA Binding RLU: 27600 RLU
[2]
  Trimeric HA Binding RLU: 18000 RLU
[3]
  Trimeric HA Binding RLU: 18600 RLU
[4]
  Trimeric HA Binding RLU: 18600 RLU
[5]
  Trimeric HA Binding RLU: 17800 RLU
[6]
  Trimeric HA Binding RLU: 36000 RLU
[7]
  Trimeric HA Binding RLU: 34500 RLU
[8]
  Trimeric HA Binding RLU: 32700 RLU
[9]
  Trimeric HA Binding RLU: 10300 RLU
[10]
  Trimeric HA Binding RLU: 13300 RLU
[11]
  Trimeric HA Binding RLU: 36 RLU
[12]
  Trimeric HA Binding RLU: 32000 RLU
[13]
  Trimeric HA Binding RLU: 18500 RLU
[14]
  Trimeric HA Binding RLU: 17600 RLU
[15]
  Trimeric HA Binding RLU: 23300 RLU
[16]
  Trimeric HA Binding RLU: 54800 RLU
[17]
  Trimeric HA Binding RLU: 30100 RLU
[18]
  Trimeric HA Binding RLU: 21500 RLU
[19]
  Trimeric HA Binding RLU: 21500 RLU
[20]
  Trimeric HA Binding RLU: 16100 RLU
[21]
  Trimeric HA Binding RLU: 16600 RLU
[22]
  Trimeric HA Binding RLU: 18300 RLU
[23]
  Trimeric HA Binding RLU: 29700 RLU
[24]
  Trimeric HA Binding RLU: 15100 RLU
[25]
  Trimeric HA Binding RLU: 26500 RLU
[26]
  Trimeric HA Binding RLU: 29800 RLU
[27]
  Trimeric HA Binding RLU: 27800 RLU
[28]
  Trimeric HA Binding RLU: 1300 RLU
[29]
  Trimeric HA Binding RLU: 78 RLU
